These results are taken from US20050002904A1, “Uses of vascular endothelial growth factor and type I collagen inducible protein (VCIP)” (priority 2003, published 2005).

The test system of the experiment is VCIP. The experiment in a line: VCIP mRNA induction by growth factors and cytokines in monolayer cells. It is filed as cell-based, human. The conditions noted are these: 6 h, northern blot. On the procedure:
FIGS. 1A-M show expression analysis and predicted amino acid sequence of VEGF and type I collagen inducible protein (VCIP). FIG. 1A: HUVECs were embedded into three-dimensional type I collagen gel in the presence of 20% adult human serum, 1× ITS and stimulated with VEGF^165 (100 ng/ml). Total RNA was prepared at the indicated time points. Northern blots were hybridized with a fragment of the VCIP (clone-33A) cDNA probe. The transcript size (3.4 kb) is indicated on the right. The numbers at the bottom of the gel represent the fold increase in VCIP mRNA levels, as compared with untreated cells. […] Total RNA was isolated at indicated time points and subjected to VCIP northern blot analysis. […] FIG. 1E: Poly(A)^+ RNA prepared from various human tissues was subjected to VCIP northern blot analysis by hybridization with the clone-33A cDNA probe. FIG. 1F: The blot shown in FIG. 1E was re-hybridized with a GAPDH probe, showing that equal amounts of RNA were loaded across the lanes. FIG. 1G: Detection of VCIP mRNA by RT-PCR (20 cycles): monolayer endothelial cells were treated for 30 min with: (1) untreated, (2) bFGF (20 ng/ml), (3) VEGF^165 (100 ng/ml), (4) PMA (20 ng/ml), (5) bFGF (20 ng/ml)+VEGF (100 ng/ml), (6) bFGF (20 ng/ml)+PMA (20 ng/ml), (7) VEGF (100 ng/ml)+PMA (20 ng/ml) and (8) bFGF (20 ng/ml)+VEGF (100 ng/ml)+PMA (20 ng/ml). […]

B1: EGF: growth factor (protein, UniProt P01133 23-1207, looked up)
Pro-epidermal growth factor: PQHWSCPEGTLAGNGNSTCVGPAPFLIFSHGNSIFRIDTEGTNYEQLVVDAGVSVIMDFHYNEKRIYWVDLERQLLQRVFLNGSRQERVCNIEKNVSGMAINWINEEVIWSNQQEGIITVTDMKGNNSHILLSALKYPANVAVDPVERFIFWSSEVAGSLYRADLDGVGVKALLETSEKITAVSLDVLDKRLFWIQYNREGSNSLICSCDYDGGSVHISKHPTQHNLFAMSLFGDRIFYSTWKMKTIWIANKHTGKDMVRINLHSSFVPLGELKVVHPLAQPKAEDDTWEPEQKLCKLRKGNCSSTVCGQDLQSHLCMCAEGYALSRDRKYCEDVNECAFWNHGCTLGCKNTPGSYYCTCPVGFVLLPDGKRCHQLVSCPRNVSECSHDCVLTSEGPLCFCPEGSVLERDGKTCSGCSSPDNGGCSQLCVPLSPVSWECDCFPGYDLQLDEKSCAASGPQPFLLFANSQDIRHMHFDGTDYGTLLSQQMGMVYALDHDPVENKIYFAHTALKWIERANMDGSQRERLIEEGVDVPEGLAVDWIGRRFYWTDRGKSLIGRSDLNGKRSKIITKENISQPRGIAVHPMAKRLFWTDTGINPRIESSSLQGLGRLVIASSDLIWPSGITIDFLTDKLYWCDAKQSVIEMANLDGSKRRRLTQNDVGHPFAVAVFEDYVWFSDWAMPSVMRVNKRTGKDRVRLQGSMLKPSSLVVVHPLAKPGADPCLYQNGGCEHICKKRLGTAWCSCREGFMKASDGKTCLALDGHQLLAGGEVDLKNQVTPLDILSKTRVSEDNITESQHMLVAEIMVSDQDDCAPVGCSMYARCISEGEDATCQCLKGFAGDGKLCSDIDECEMGVPVCPPASSKCINTEGGYVCRCSEGYQGDGIHCLDIDECQLGEHSCGENASCTNTEGGYTCMCAGRLSEPGLICPDSTPPPHLREDDHHYSVRNSDSECPLSHDGYCLHDGVCMYIEALDKYACNCVVGYIGERCQYRDLKWWELRHAGHGQQQKVIVVAVCVVVLVMLLLLSLWGAHYYRTQKLLSKNPKNPYEESSRDVRSRRPADTEDGMSSCPQPWFVVIKEHQDLKNGGQPVAGEDGQAADGSMQPTSWRQEPQLCGMGTEQGCWIPVSSDKGSCPQVMERSFHMPSYGTQTLEGGVEKPHSLLSANPLWQQRALDPPHQMELTQ
modifications: Pro-epidermal growth factor
Regarding B1, the “induction of VCIP expression” value is given as “strongly induced” (A431 epidermoid carcinoma cells) and “but not to EGF” (HdMVECs).
